T1: MBP-PHL4-His (Arabidopsis thaliana? (Columbia-0?), UniProt Q8GXC2 1-397)
T1 sequence: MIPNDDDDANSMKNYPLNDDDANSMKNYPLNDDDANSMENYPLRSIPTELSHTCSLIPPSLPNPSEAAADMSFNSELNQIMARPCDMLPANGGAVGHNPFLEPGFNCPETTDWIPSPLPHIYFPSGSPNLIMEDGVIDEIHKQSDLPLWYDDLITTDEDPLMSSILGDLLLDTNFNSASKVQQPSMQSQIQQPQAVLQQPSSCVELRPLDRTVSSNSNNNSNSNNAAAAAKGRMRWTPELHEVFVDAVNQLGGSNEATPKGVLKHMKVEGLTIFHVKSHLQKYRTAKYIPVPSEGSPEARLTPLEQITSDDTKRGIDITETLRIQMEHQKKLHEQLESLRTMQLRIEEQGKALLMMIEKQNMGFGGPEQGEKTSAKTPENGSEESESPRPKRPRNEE

B1: 2xP1BS probe (dsDNA)
DNA 1: ATTAACGAATATTCCGTACAATTAACGAATATTCCGTACA
DNA 2: TGTACGGAATATTCGTTAATTGTACGGAATATTCGTTAAT
B2: 2xP1BS unlabeled competitor (dsDNA)
DNA 1: B1 DNA 1
DNA 2: B1 DNA 2

Tests used:
[1] = target: T1, MBP-PHL4-His; test: EMSA; 4 ug protein, 10 fmol probe; EMSA as described by Sun et al. (2016); buffer, salt, pH and temperature not given; 4 ug MBP-PHL4, 10 fmol biotin probe; conditions: protein: recombinant; tags: N-terminal MBP; C-terminal 6xHis; chain copies: 2; label: biotin (on F strand); blunt
[2] = target: T1, MBP-PHL4-His; test: competition; unlabeled probe at 200:1, 800:1 and 1200:1 molar excess over labeled probe; EMSA as described by Sun et al. (2016); buffer, salt, pH and temperature not given; 4 ug MBP-PHL4, 10 fmol biotin probe; conditions: protein: recombinant; tags: N-terminal MBP; C-terminal 6xHis; chain copies: 2; blunt

Binder | binding result [1] | binding result [2]
B1 | binds | 
B2 |  | binds

Source: publication PMC6174329, “Functional Characterization of Arabidopsis PHL4 in Plant Response to Phosphate Starvation”
